Source: article PMC11840924, “Identifying Allosteric Hotspots in Mycobacterium tuberculosis cAMP Receptor Protein through Structural Homology” (Biochemistry, 2025)

Key:
[1] = molecular target: T1, cAMP receptor protein from Mycobacterium tuberculosis (CRPMTB), wildtype (Mycobacterium tuberculosis), P9WMH3; experiment: SEC; conditions: remark: other sources report otherwise
T1 chain: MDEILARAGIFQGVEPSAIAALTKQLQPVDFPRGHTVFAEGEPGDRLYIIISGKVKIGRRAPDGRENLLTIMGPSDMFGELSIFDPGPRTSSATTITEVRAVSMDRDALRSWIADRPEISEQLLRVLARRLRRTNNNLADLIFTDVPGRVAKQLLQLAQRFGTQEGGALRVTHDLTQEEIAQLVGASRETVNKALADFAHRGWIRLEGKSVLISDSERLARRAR

[2] = molecular target: T1, cAMP receptor protein from …; experiment: fluorescence polarisation; fluorescence anisotropy, stoichiometric titration; CRPMTB titrated into 200 nM fluorescein-labelled 32-bp serC promoter DNA; 75 mM KCl, 50 mM HEPES, 1 mM EDTA, pH 7.6; 0 mM cAMP; conditions: remark: other sources report otherwise
[3] = molecular target: T1, cAMP receptor protein from …; experiment: fluorescence polarisation; fluorescence anisotropy; CRPMTB titrated into 3 nM fluorescein-labelled 32-bp serC promoter DNA (full site); 75 mM KCl, 50 mM HEPES, 1 mM EDTA, pH 7.6; 1 mM cAMP; second transition read as high-order oligomers on DNA; apparent; conditions: remark: other sources report otherwise
[4] = molecular target: T1, cAMP receptor protein from …; experiment: fluorescence polarisation; fluorescence anisotropy; CRPMTB titrated into 3 nM fluorescein-labelled 32-bp serC promoter DNA (full site); 75 mM KCl, 50 mM HEPES, 1 mM EDTA, pH 7.6; 0 mM cAMP; second transition ([CRP] > 100 nM) read as free CRPMTB joining the specific CRPMTB-DNA complex (high-order oligomers on DNA); apparent; conditions: remark: other sources report otherwise
SEC = molecular target: the molecule itself; experiment: SEC
CRPMTB A61H [5] = molecular target: T2, CRPMTB A61H (Mycobacterium tuberculosis, UniProt P9WMH3 1-224, A61H); experiment: fluorescence anisotropy; no cAMP; 75 mM KCl, 50 mM HEPES, 1 mM EDTA, pH 7.6; […]; temperature not stated; conditions: protein: recombinant; tags: His-tag (pET-3a); chain copies: 2; label: fluorescein; blunt
T2 sequence: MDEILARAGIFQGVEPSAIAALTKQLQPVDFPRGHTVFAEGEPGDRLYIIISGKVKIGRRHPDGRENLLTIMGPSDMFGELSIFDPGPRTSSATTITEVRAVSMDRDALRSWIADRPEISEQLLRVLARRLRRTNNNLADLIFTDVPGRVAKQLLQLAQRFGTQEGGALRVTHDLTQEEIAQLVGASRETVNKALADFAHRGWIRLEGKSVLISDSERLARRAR

CRPMTB T70F [6] = molecular target: T3, CRPMTB T70F (Mycobacterium tuberculosis, UniProt P9WMH3 1-224, T70F); experiment: as above; conditions: protein: recombinant; tags: His-tag (pET-3a); chain copies: 2; label: fluorescein; blunt
T3 sequence: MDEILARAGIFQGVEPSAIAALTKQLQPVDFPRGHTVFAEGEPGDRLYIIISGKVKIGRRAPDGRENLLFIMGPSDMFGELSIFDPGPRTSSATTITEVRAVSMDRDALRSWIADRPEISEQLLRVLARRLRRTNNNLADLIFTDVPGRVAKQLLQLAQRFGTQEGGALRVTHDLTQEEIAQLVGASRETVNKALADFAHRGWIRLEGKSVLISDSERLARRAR

CRPMTB D63H [7] = molecular target: T4, CRPMTB D63H (Mycobacterium tuberculosis, UniProt P9WMH3 1-224, D63H); experiment: as above; conditions: protein: recombinant; tags: His-tag (pET-3a); chain copies: 2; label: fluorescein; blunt
T4 sequence: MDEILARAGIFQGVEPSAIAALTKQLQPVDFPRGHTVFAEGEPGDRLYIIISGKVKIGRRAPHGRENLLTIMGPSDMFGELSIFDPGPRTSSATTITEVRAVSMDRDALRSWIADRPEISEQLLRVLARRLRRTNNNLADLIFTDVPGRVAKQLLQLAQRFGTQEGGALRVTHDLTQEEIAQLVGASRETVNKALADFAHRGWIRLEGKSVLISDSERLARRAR

CRPMTB A61I [8] = molecular target: T5, CRPMTB A61I (Mycobacterium tuberculosis, UniProt P9WMH3 1-224, A61I); experiment: as above; conditions: protein: recombinant; tags: His-tag (pET-3a); chain copies: 2; label: fluorescein; blunt
T5 sequence: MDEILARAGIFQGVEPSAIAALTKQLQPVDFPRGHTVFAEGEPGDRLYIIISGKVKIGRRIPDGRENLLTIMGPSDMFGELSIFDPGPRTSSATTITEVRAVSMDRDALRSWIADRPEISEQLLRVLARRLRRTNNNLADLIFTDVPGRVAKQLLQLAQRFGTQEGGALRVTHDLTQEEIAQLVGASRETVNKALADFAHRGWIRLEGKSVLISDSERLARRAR

CRPMTB A61H [9] = molecular target: T2, CRPMTB A61H; experiment: fluorescence anisotropy; 1 mM cAMP; 75 mM KCl, 50 mM HEPES, 1 mM EDTA, pH 7.6; […]; temperature not stated; conditions: protein: recombinant; tags: His-tag (pET-3a); chain copies: 2; label: fluorescein; blunt
CRPMTB T70F [10] = molecular target: T3, CRPMTB T70F; experiment: as above; conditions: protein: recombinant; tags: His-tag (pET-3a); chain copies: 2; label: fluorescein; blunt
CRPMTB D63H [11] = molecular target: T4, CRPMTB D63H; experiment: as above; conditions: protein: recombinant; tags: His-tag (pET-3a); chain copies: 2; label: fluorescein; blunt
CRPMTB A61I [12] = molecular target: T5, CRPMTB A61I; experiment: as above; conditions: protein: recombinant; tags: His-tag (pET-3a); chain copies: 2; label: fluorescein; blunt

B1: cAMP receptor protein from Mycobacterium tuberculosis (CRPMTB), wildtype, P9WMH3 (natural protein)
chain: MDEILARAGIFQGVEPSAIAALTKQLQPVDFPRGHTVFAEGEPGDRLYIIISGKVKIGRRAPDGRENLLTIMGPSDMFGELSIFDPGPRTSSATTITEVRAVSMDRDALRSWIADRPEISEQLLRVLARRLRRTNNNLADLIFTDVPGRVAKQLLQLAQRFGTQEGGALRVTHDLTQEEIAQLVGASRETVNKALADFAHRGWIRLEGKSVLISDSERLARRAR
[1]
  stoichiometry N: 2
[2]
  stoichiometry N: > 4
[3]
  apparent K (1/[CRP]) at the boundary of oligomer formation on DNA: 6e+06 M⁻¹
[4]
  apparent K (1/[CRP]) at the boundary of oligomer formation on DNA: 1.5e+07 M⁻¹

B2: CRPMTB T70F (natural protein)
chain: MDEILARAGIFQGVEPSAIAALTKQLQPVDFPRGHTVFAEGEPGDRLYIIISGKVKIGRRAPDGRENLLFIMGPSDMFGELSIFDPGPRTSSATTITEVRAVSMDRDALRSWIADRPEISEQLLRVLARRLRRTNNNLADLIFTDVPGRVAKQLLQLAQRFGTQEGGALRVTHDLTQEEIAQLVGASRETVNKALADFAHRGWIRLEGKSVLISDSERLARRAR
SEC
  stoichiometry N: 2

B3: CRPMTB A61I (natural protein)
chain: MDEILARAGIFQGVEPSAIAALTKQLQPVDFPRGHTVFAEGEPGDRLYIIISGKVKIGRRIPDGRENLLTIMGPSDMFGELSIFDPGPRTSSATTITEVRAVSMDRDALRSWIADRPEISEQLLRVLARRLRRTNNNLADLIFTDVPGRVAKQLLQLAQRFGTQEGGALRVTHDLTQEEIAQLVGASRETVNKALADFAHRGWIRLEGKSVLISDSERLARRAR
SEC
  stoichiometry N: 2

B4: CRPMTB D63H (natural protein)
chain: MDEILARAGIFQGVEPSAIAALTKQLQPVDFPRGHTVFAEGEPGDRLYIIISGKVKIGRRAPHGRENLLTIMGPSDMFGELSIFDPGPRTSSATTITEVRAVSMDRDALRSWIADRPEISEQLLRVLARRLRRTNNNLADLIFTDVPGRVAKQLLQLAQRFGTQEGGALRVTHDLTQEEIAQLVGASRETVNKALADFAHRGWIRLEGKSVLISDSERLARRAR
SEC
  stoichiometry N: 2

B5: CRPMTB A61H (natural protein)
chain: MDEILARAGIFQGVEPSAIAALTKQLQPVDFPRGHTVFAEGEPGDRLYIIISGKVKIGRRHPDGRENLLTIMGPSDMFGELSIFDPGPRTSSATTITEVRAVSMDRDALRSWIADRPEISEQLLRVLARRLRRTNNNLADLIFTDVPGRVAKQLLQLAQRFGTQEGGALRVTHDLTQEEIAQLVGASRETVNKALADFAHRGWIRLEGKSVLISDSERLARRAR
SEC
  stoichiometry N: 2

B6: serC32 full-site promoter (dsDNA)
DNA 1: GCGCGTAGTGTGAACAAGCTCACATGCAAGCC
DNA 2: GGCTTGCATGTGAGCTTGTTCACACTACGCGC
CRPMTB A61H [5]
  Ka: 4.03 ± 0.08 10^8 M-1
CRPMTB T70F [6]
  Ka: 4.42 ± 0.04 10^8 M-1
CRPMTB D63H [7]
  Ka: 4.53 ± 0.04 10^8 M-1
CRPMTB A61I [8]
  Ka: 2.71 ± 0.02 10^8 M-1
CRPMTB A61H [9]
  Ka: 2.95 ± 0.05 10^8 M-1
CRPMTB T70F [10]
  Ka: 2.75 ± 0.02 10^8 M-1
CRPMTB D63H [11]
  Ka: 4.66 ± 0.06 10^8 M-1
CRPMTB A61I [12]
  Ka: 3.57 ± 0.03 10^8 M-1
